Reference: PMC6101577

Molecular target: T1, recombinant human SFPQ/PSF (human), P23246
T1 chain: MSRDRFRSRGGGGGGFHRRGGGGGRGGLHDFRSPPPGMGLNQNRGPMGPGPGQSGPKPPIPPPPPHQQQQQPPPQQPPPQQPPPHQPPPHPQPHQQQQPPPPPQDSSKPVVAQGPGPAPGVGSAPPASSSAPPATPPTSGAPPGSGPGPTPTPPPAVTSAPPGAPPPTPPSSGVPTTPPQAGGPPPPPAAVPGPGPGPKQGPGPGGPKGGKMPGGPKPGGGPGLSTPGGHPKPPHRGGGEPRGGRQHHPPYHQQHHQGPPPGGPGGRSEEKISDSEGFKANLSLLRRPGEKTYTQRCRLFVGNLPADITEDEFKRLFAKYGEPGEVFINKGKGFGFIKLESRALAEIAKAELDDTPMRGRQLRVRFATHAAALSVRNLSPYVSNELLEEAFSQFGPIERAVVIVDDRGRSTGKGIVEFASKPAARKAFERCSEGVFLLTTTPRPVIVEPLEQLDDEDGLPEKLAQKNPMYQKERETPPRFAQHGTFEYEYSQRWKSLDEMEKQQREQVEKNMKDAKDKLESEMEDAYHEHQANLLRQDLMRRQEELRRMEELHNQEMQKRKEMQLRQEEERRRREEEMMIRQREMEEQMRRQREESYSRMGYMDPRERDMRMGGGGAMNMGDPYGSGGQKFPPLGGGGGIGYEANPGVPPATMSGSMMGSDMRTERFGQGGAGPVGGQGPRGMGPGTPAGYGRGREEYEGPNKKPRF
Assay: SEC
Conditions: remark: other sources report otherwise

stoichiometry N: 2
B1: recombinant human SFPQ/PSF, P23246 1-707 (natural protein)
chain: MSRDRFRSRGGGGGGFHRRGGGGGRGGLHDFRSPPPGMGLNQNRGPMGPGPGQSGPKPPIPPPPPHQQQQQPPPQQPPPQQPPPHQPPPHPQPHQQQQPPPPPQDSSKPVVAQGPGPAPGVGSAPPASSSAPPATPPTSGAPPGSGPGPTPTPPPAVTSAPPGAPPPTPPSSGVPTTPPQAGGPPPPPAAVPGPGPGPKQGPGPGGPKGGKMPGGPKPGGGPGLSTPGGHPKPPHRGGGEPRGGRQHHPPYHQQHHQGPPPGGPGGRSEEKISDSEGFKANLSLLRRPGEKTYTQRCRLFVGNLPADITEDEFKRLFAKYGEPGEVFINKGKGFGFIKLESRALAEIAKAELDDTPMRGRQLRVRFATHAAALSVRNLSPYVSNELLEEAFSQFGPIERAVVIVDDRGRSTGKGIVEFASKPAARKAFERCSEGVFLLTTTPRPVIVEPLEQLDDEDGLPEKLAQKNPMYQKERETPPRFAQHGTFEYEYSQRWKSLDEMEKQQREQVEKNMKDAKDKLESEMEDAYHEHQANLLRQDLMRRQEELRRMEELHNQEMQKRKEMQLRQEEERRRREEEMMIRQREMEEQMRRQREESYSRMGYMDPRERDMRMGGGGAMNMGDPYGSGGQKFPPLGGGGGIGYEANPGVPPATMSGSMMGSDMRTERFGQGGAGPVGGQGPRGMGPGTPAGYGRGREEYEGPNKKPRF
